Source: publication PMC7568402

Tested on: CC(=O)N[C@H]1[C@H](Oc2ccc([N+](=O)[O-])cc2)O[C@H](CO)[C@@H](O)[C@@H]1O
Assay: p-nitrophenol release, A405, non-linear regression
Format: biochemical, Bifidobacterium longum subsp. infantis
Details: pH 5.0, 37 °C, 50 mM Na2HPO4, apparent kinetics

Blon_0459 (Bifidobacterium longum subsp. infantis ATCC 15697 = JCM 1222 = DSM 20088)
Km: 330 ± 40 µM

Blon_0732 (Bifidobacterium longum subsp. infantis ATCC 15697 = JCM 1222 = DSM 20088)
Km: 1640 ± 850 µM
kcat: 104 ± 46.2 s⁻¹
kcat/Km: 65000 ± 543 M⁻¹ s⁻¹

Blon_2355 (Bifidobacterium longum subsp. infantis ATCC 15697 = JCM 1222 = DSM 20088)
Km: 480 ± 20 µM
